Results taken from PMC6620098 (Science Advances, 2019).

B1: Elp1-3xFLAG (endogenous, in the Elp123 subcomplex) (natural protein, S. cerevisiae, UniProt Q06706 1-1349, looked up)
chain: MVEHDKSGSKRQELRSNMRNLITLNKGKFKPTASTAEGDEDDLSFTLLDSVFDTLSDSITCVLGSTDIGAIEVQQFMKDGSRNVLASFNIQTFDDKLLSFVHFADINQLVFVFEQGDIITATYDPVSLDPAETLIEIMGTIDNGIAAAQWSYDEETLAMVTKDRNVVVLSKLFEPISEYHLEVDDLKISKHVTVGWGKKETQFRGKGARAMEREALASLKASGLVGNQLRDPTMPYMVDTGDVTALDSHEITISWRGDCDYFAVSSVEEVPDEDDETKSIKRRAFRVFSREGQLDSASEPVTGMEHQLSWKPQGSLIASIQRKTDLGEEDSVDVIFFERNGLRHGEFDTRLPLDEKVESVCWNSNSEALAVVLANRIQLWTSKNYHWYLKQELYASDISYVKWHPEKDFTLMFSDAGFINIVDFAYKMAQGPTLEPFDNGTSLVVDGRTVNITPLALANVPPPMYYRDFETPGNVLDVACSFSNEIYAAINKDVLIFAAVPSIEEMKKGKHPSIVCEFPKSEFTSEVDSLRQVAFINDSIVGVLLDTDNLSRIALLDIQDITQPTLITIVEVYDKIVLLRSDFDYNHLVYETRDGTVCQLDAEGQLMEITKFPQLVRDFRVKRVHNTSAEDDDNWSAESSELVAFGITNNGKLFANQVLLASAVTSLEITDSFLLFTTAQHNLQFVHLNSTDFKPLPLVEEGVEDERVRAIERGSILVSVIPSKSSVVLQATRGNLETIYPRIMVLAEVRKNIMAKRYKEAFIVCRTHRINLDILHDYAPELFIENLEVFINQIGRVDYLNLFISCLSEDDVTKTKYKETLYSGISKSFGMEPAPLTEMQIYMKKKMFDPKTSKVNKICDAVLNVLLSNPEYKKKYLQTIITAYASQNPQNLSAALKLISELENSEEKDSCVTYLCFLQDVNVVYKSALSLYDVSLALLVAQKSQMDPREYLPFLQELQDNEPLRRKFLIDDYLGNYEKALEHLSEIDKDGNVSEEVIDYVESHDLYKHGLALYRYDSEKQNVIYNIYAKHLSSNQMYTDAAVAYEMLGKLKEAMGAYQSAKRWREAMSIAVQKFPEEVESVAEELISSLTFEHRYVDAADIQLEYLDNVKEAVALYCKAYRYDIASLVAIKAKKDELLEEVVDPGLGEGFGIIAELLADCKGQINSQLRRLRELRAKKEENPYAFYGQETEQADDVSVAPSETSTQESFFTRYTGKTGGTAKTGASRRTAKNKRREERKRARGKKGTIYEEEYLVQSVGRLIERLNQTKPDAVRVVEGLCRRNMREQAHQIQKNFVEVLDLLKANVKEIYSISEKDRERVNENGEVYYIPEIPVPEIHDFPKSHIVDF
B2: Elp2 (endogenous, in the Elp123 subcomplex) (natural protein, UniProt P42935 1-788, looked up)
chain: MVECITPEAIFIGANKQTQVSDIHKVKKIVAFGAGKTIALWDPIEPNNKGVYATLKGHEAEVTCVRFVPDSDFMVSASEDHHVKIWKFTDYSHLQCIQTIQHYSKTIVALSALPSLISVGCADGTISIWRQNIQNDEFGLAHEFTIKKGFFYPLCLSLSKVEEKKYLLAIGGTNVNVFIASFILSDSGIEKCRVVAELEGHEDWVKSLAFRHQETPGDYLLCSGSQDRYIRLWRIRINDLIDDSEEDSKKLTLLSNKQYKFQIDDELRVGINFEALIMGHDDWISSLQWHESRLQLLAATADTSLMVWEPDETSGIWVCSLRLGEMSSKGASTATGSSGGFWSCLWFTHERMDFFLTNGKTGSWRMWATKDNIICDQRLGISGATKDVTDIAWSPSGEYLLATSLDQTTRLFAPWIYDASGRKREIATWHEFSRPQIHGYDMICVETVTDTRFVSGGDEKILRSFDLPKGVAGMLQKFVGIQFEEKSEMPDSATVPVLGLSNKAGEDDANEDDEEEEGGNKETPDITDPLSLLECPPMEDQLQRHLLWPEVEKLYGHGFEITCLDISPDQKLIASACRSNNVQNAVIRIFSTENWLEIKPALPFHSLTITRLKFSKDGKFLLSVCRDRKWALWERNMEDNTFELRFKNEKPHTRIIWDADWAPLEFGNVFVTASRDKTVKVWRHQKEPADDYVLEASIKHTKAVTAISIHDSMIREKILISVGLENGEIYLYSYTLGKFELITQLNEDITPADKITRLRWSHLKRNGKLFLGVGSSDLSTRIYSLAYE
B3: Elp3 (endogenous, in the Elp123 subcomplex) (enzyme, UniProt Q02908 1-557, looked up)
chain: MARHGKGPKTNKKKLAPEKERFIQCCADITLELTDSLTSGTTREINLNGLITKYSKKYKLKQQPRLTDIINSIPDQYKKYLLPKLKAKPVRTASGIAVVAVMCKPHRCPHIAYTGNICVYCPGGPDSDFEYSTQSYTGYEPTSMRAIRARYDPYEQARGRVEQLKQLGHSIDKVEYVLMGGTFMSLPKEYREDFIVKLHNALSGFNGNDIDEAILYSQQSLTKCVGITIETRPDYCTQTHLDDMLKYGCTRLEIGVQSLYEDVARDTNRGHTVRSVCETFAVSKDAGYKVVSHMMPDLPNVGMERDIEQFKEYFENPDFRTDGLKIYPTLVIRGTGLYELWKTGRYKSYSANALVDLVARILALVPPWTRIYRVQRDIPMPLVTSGVDNGNLRELALARMKDLGTTCRDVRTREVGIQEVHHKVQPDQVELIRRDYYANGGWETFLSYEDPKKDILIGLLRLRKASKKYTYRKEFTSQRTSIVRELHVYGSVVPLHSRDPRKFQHQGFGTLLMEEAERIAKEEHGSEKISVISGVGVRNYYGKLGYELDGPYMSKRI

Experiments:
Test in all cases: cryo-EM structure
cryo-EM structure = molecular target: the molecule itself
[1] = molecular target: B1
[2] = molecular target: B2

binding result [1] | binding result [2] | Binder | stoichiometry N (cryo-EM structure)
– | – | B1 | 2
binds | – | B2 | –
binds | binds | B3 | –
